Laboratory results reported in the DeepSol protein solubility set.

test: soluble on expression in E. coli; label from the status in PepcDB or PDB records

Row | Sequence | soluble on expression in E. coli
1 | GAMERKANYAVDAYFREALRVSEPKAPKAPRPPKQPIVQDFQFFPPRLFELLDQEIYYFRKTVGYKVPKNTELGSDATKVQREEQRKIDEAEPLTEEEIQEKENLLSQGFTAWTKRDFNQFIKANEKYGRDDIDNIAKDVEGKTPEEVIEYNAVFWERCTELQDIERIMGQIERGEGKIQRRLSIKKALDQKMSRYRAPFHQLRLQYGNNKGKNYTEIEDRFLVCMLHKLGFDKENVYEELRAAIRASPQFRFDWFIKSRTALELQRRCNTLITLIERENIELEEKERAEKKKKAPKGSVSAGS | soluble
2 | MNLIDNHIHTNFSSDGKDSMEDTIKKAISIGVRYLTFTDHLEHDEDRGFCINYNDYVPVFNKFKEKYKKDIELLLGVEVGYRKHLKNEIEEIINSNPFDFVLCSTHTIDNVPVPSKAYFKGLSKEDAYYKYFNSILETNREFGDYNIYGHLDYISRYGIYSDNRVIYNDFKDVIDEVLKSIINNGSGIELNTSGYRYGLNAIHPNEDILKRYKELGGFIVTVGSDSHRVEDICKDFDVAYDMLKYLDFKYVSLFKERETYFVNIEKVKSNNIA | not soluble
3 | MAHHHHHHMRPSLPKKVLAWIASYPSYFIVDDPTEKDPSKARIRRASDRQPLDVALELYRWIPEEGISEAALLTKLSEVHRDYVKRIGLRHIVDSLSEWLSFTEAPGGGGGGAEGEEKVLLLRRLQTEVELERAIHTEESKLASGDENSLPVQIEDAEMERRWPKLKYEGTMSQQQASVARAQQRRGRGDI | soluble
4 | MGSSHHHHHHGKTIFVIVPTNEEQVAFLEALAKQDELNFDWQNPPTEPGQPVVILIPSDMVEWFLEMLKAKGIPFTVYVEEGGSENLYFQGGGGGGPFRYQISEYFERQRDGVHVELRRKAVKYYAEMERMHRRQALVNLESIQDDNAPHRLSAVLSVESIQAGHLDQEYNYWYAHERDAIRAEKLMMEIRELKAKMPADSA | not soluble
5 | MGSDKIHHHHHHMTALVCLTGSSCTDDENNGQGNNIIYGENIIGNGEQTFEIKDHQYLKRGTYLMKGWCYVTYGSTLTIEAGTVIKGDKETRAALIVEPGGKLIARGTVDAPIVFTSEMPAGKRKPGDWGGLILCGYARNNEDIMQIEGGPRTMHGGPNNADNSGVLSYVRVEFAGYPFKKNQEINGITFGSVGNGTQIDHLQVSYANDDAFEWFGGTVHAEYLVAYHCWDDDFDIDNGYSGTCRHLLGIRHPRIADITGSHAFECSNNGTNTPATPTTAATFEDVTIYGPASGDASFVNHPDFINGGGLRPENESMLGLFGAALYMGNNTSVTFRNCRISGYPSDMEGTPASADNVVFSEREETGYPEWTQGWCNFNPQETEY | not soluble
6 | MSLKKIVIVGAGFAGVSATRLLAKNLKNDAEITVIDKHDFQTSMTQLHEVAASRVEADAVQYHLNRTIGKFNNVKVVKESLVELDKANKKVITDKNSYDYDYLVVSMGGEPNDFGVPGVNEYGFTLWSLEDALKIKAHLKEMVQAAAKEADSEKRKKLLTFSVAGSGFTGIEMAGELIDWRKKASKKYGIPESEFTINIVEMMPTIMNILDRSLADKALVYLQNKNINVLVNHGITAVAQDHITVNVGGRDEEKVVKEIPGNTLIWTTGVQGNTEAEACQLSETERGHRLQANEYMEAIGEENHGIYVAGDVSGYIVPENGRPTPQIVEAAEQTGSTAAKNIIADIKGGEKEGHHHHHH | soluble
7 | MSLEWHFSLKEPHVLLFLPFEKYALPYPDPSQSWLSFGLTEIPVPEWTKNLEIITPWRPDFLKFANAQFRCSPEINQTCTHDGALLQLSKYRGFNQNCFLDLLERVKPGGWIIIGGNKTSGADSMMKWVKKIVPITNKFSKNHGLVFWIQVPQQIEKQNTAQLRSPPLTFENKFQTTSGMFSHGRIDPGSAVLASHMCKTISGKTADFGAGWGFLSHAALERSEKLTALDLYEADYNALKAAKQHLKHITTSLPIHFYWHDLVHEPITNLYDTIISNPPFHTQQTTDVSLGQHFIINAAKYLKPGGNLLLVANRHLPYETLLKRLFRTVLIYEKAHGFKVIEAYREGHHHHHH | soluble
8 | GHMTKLFSKVKESIEGIKMPSTLTINGKAPIVAYAELIAARIVNALAPNSIAIKLVDDKKAPAAKLDDATEDVFNKITSKFAAIFDNGDKEQVAKWVNLAQKELVIKNFAKLSQSLETLDSQLNLRTFILGGLKYSAADVACWGALRSNGMCGSIIKNKVDVNVSRWYTLLEMDPIFGEAHDFLSKSLLELKKSANVGKKKETHKANFE | soluble
9 | CHAINAAGKKVLIVYAHQEPKSFNGSLKNVAVDELSRQGCTVTVSDLYAMNFEPRATDKDITGTLSNPEVFNYGVETHEAYKQRSLASDITDEQKKVREADLVIFQFPLYWFSVPAILKGWMDRVLCQGFAFDIPGFYDSGLLQGKLALLSVTTGGTAEMYTKTGVNGDSRYFLWPLQHGTLHFCGFKVLAPQISFAPEIASEEERKGMVAAWSQRLQTIWKEEPIPCTAHWHFGQ | soluble
10 | MKDVTPARADYPWDGERDVIVIGSGCAGLSAALLAAKKSLDVVLCEKSSQVGGTTASAGGVMWIPNSREARAAGVDDSSEQVRVYLRALMGAYYRADLVDPYLKSAPLAAQAIQEDTQVRLKLMPAMSDYHASLPGGKAGGRSLEPERFDGRRLGADFELVRAPIKRLMLLGGLYIDKRRIDEFLNPFGSFRNFIGVIRTLARYAIDRTRFSRGTDIGAGNAFVASALLSLRERGVPIWLNSPMVSLVRNPQGGVAGVAICRDGKLQRIRARKGVILAAGGFPRNAALLEELAGGFPHDQSVGYEGNVGDTLQAARQAGAAIDADLASPCWWTPTSRNKEADGSMSTVLYGYLDRSRPGMIAVNAAGKRFVNDSDSYHDIVYAMFKDGVTPDSRFYLICDRRFVWKRGLGNLIKPYCLSLGRYVRSGYISTGRSIRELAAAIGIDPDALEVTVTRHNGFCETGVDLDFGKGGNPYNRMFGDPRVKPNPNLLAIRHAPFFALRIYPGTLGTILGLKATADAQVVGQDGEAIPGLYACGNDMSSVFRGFYPGAGATLGPGLVFAYRAIEHLARSSGGSAAQSALEHHHHHH | not soluble
11 | MSLSFKNNLKLLLSTQNVLIYILNSEEERLEYKIHLMIRQNIKKTIYCWNFIDGYYNNPNYLNKAIRNPLQAIEFIEQLNFPTSTIFFLKDFHVFINDISVIRKIKNLSRFLKQANSSIIISASEMQVPSLLKDFITVLEFPLPNYEEINLELHRLFKIMNVDSSIYSEYFHDLTLAYRGFSIEKIRISIAKLLTSNLSSTHLIKNILYEKRQLIEQTDEGHHHHHH | not soluble
12 | MKFPGKRKSKHYFPVNARDPLLQQFQPENETSAAWVVGIDQTLVDIEAKVDDEFIERYGLSAGHSLVIEDDVAEALYQELKQKNLITHQFAGGTIGNTMHNYSVLADDRSVLLGVMCSNIEIGSYAYRYLCNTSSRTDLNYLQGVDGPIGRCFTLIGESGERTFAISPGHMNQLRAESIPEDVIAGASALVLTSYLVRCKPGEPMPEATMKAIEYAKKYNVPVVLTLGTKFVIAENPQWWQQFLKDHVSILAMNEDEAEALTGESDPLLASDKALDWVDLVLCTAGPIGLYMAGFTEDEAKRKTQHPLLPGAIAEFNQYEFSRAMRHKDCQNPLRVYSHIAPYMGGPEKIMNTNGAGDGALAALLHDITANSYHRSNVPNSSKHKFTWLTYSSLAQVCKYANRVSYQVLNQHSPRLTRGLPEREDSLEESYWDR | not soluble
13 | MGSDKIHHHHHHMEIKCIITDDEPIARKGLRRHIGKIDFLTIVGECEDAIQLNNMLNSVQADLLFLDIEMPDMSGLDFLESAQNAPKVIITSAYERYALRGYEFDVVDYLLKPISFSRFLKSVNKAHALMESTSKSEEPAYIFVKTEKQLKRLYLKEIQFIEGMENYIVIHTLTSKEIVHLRLKSIQETLPAQIFMQVHRSFIVNLSYVQAIEGNLLIIGEHKIPVSRPLREEVYKSIVNNQLIQR | not soluble
14 | MGSDKIHHHHHHMTLMKPADVSQRQSTSVLHSSSHSPSQNHLLAALPQVELESFSDHLELVPMPLGEFLYEPGSGLEYVYFPTTCIVSLHYVLSSGATAETAGVGNEGVVGVSLFMGGNTTASSAVVQTAGYGYRLNKKILMREFDRSGLLQRVLLRYTQALMTQMSQTAVCNRHHSLEQQFCRWLLLTLDRMPTNELVMTHELVASMLGVYREGISLAAGKLQQAGVISYRRGHISVLDRAKLELKSCECYQVVKTELDRLLSDGLLADAKFIKTKTDTQTSKTQ | not soluble
15 | MPSRVPKSIFYNQVGYLISGDKRFWIQAHEPQPFALRTPEGQAVFAGMTKPVGGNWYVGDFTALRVPGTYTLTVGTLEARVVIHRRAYRDVLEAMLRFFDYQLCGVVLPEDEAGPWAHGACHTSDAKVFGTERALACPGGWHDAGDYGKYTVPAAKAVADLLLAHEYFPAALAHVRPMRSVHRAPHLPPALEVAREEIAWLLTMQDPATGGVYHKVTTPSFPPLDTRPEDDDAPLVLSPISYAATATFCAAMAHAALVYRPFDPALSSCCADAARRAYAWLGAHEMQPFHNPDGILTGEYGDAELRDELLWASCALLRMTGDSAWARVCEPLLDLDLPWELGWADVALYGVMDYLRTPRAAVSDDVRNKVKSRLLRELDALAAMAESHPFGIPMRDDDFIWGSNMVLLNRAMAFLLAEGVGVLHPAAHTVAQRAADYLFGANPLGQCYVTGFGQRPVRHPHHRPSVADDVDHPVPGMVVGGPNRHLQDEIARAQLAGRPAMEAYIDHQDSYSTNEVAVYWNSPAVFVIAALLEARGR | soluble
16 | GPSDMYVHVGNLIYRNLHLFNSEMHESILVSYSSDLIIYRTNTVGDDYIPSCDCTQATYYCKHKNRYFPITVTSHDWYEIQESEYYPKHIQYNLLIGEGPCEPGDCGGKLLCKHGVIGIVTAGGDNHVAFIDLRHFHCAEEQ | soluble
17 | MGSDKIHHHHHHMEHIFQAHSPGEAGEILQQNWEHWLMTTARWREILTYDPRPATGCSPKEILWTKNKAQLYHYQCSSERRYRTPVLMIYALINRPYVLDLTPGSSLVEYLVNEGFDVYLLDWGEFEWEDRDITYADLVYDYIATAARKVARSAGSKEISIIGYCMGGTMSTLYAALFDRPVLKNLVYLAAPIDFNRAGTYDVWLKAPGYDPDRIADTMELVPKSFIDWGTRMLNPLANYWGTYTRLWKTLEEGKSVHFWKVLNKWSSDNINFPGGAYRDWIRDFYQGNKLIKNQVVLRGKRVQLQRIKANILAMVGLRDHIVMPHQTAAALTYLGGNDKTYMEFPVGHGGLVLGETARMRVFPEIAYWLGERSEELSEE | not soluble
18 | MTSSIKSDAPQFLLDLDNCSSLPPTPPKTASPGNSKMKGFNISDLCLDLDSSTSSSCSVSPASSFHTRSESVGQQQSGRNSPVSSSTESPTKRPKYSYNALIAMAIQSSPFKSLRVSEIYKYISSNFSYYKNQKPLQWQNSVRHNLSLHKEFRKVRTLDGKGSYWAMTADLGTDVYISNNCGKLRRQKSKVAKFPPMQQHFPIPQLPTQNIHQLCMQNPQILATLLQNMYLQNMQNLQNIPMVPGFPIIPVPINPTSFHFPKSS | not soluble
19 | MNIWGPHIVQARRAVAIFCRGLLVLMPALSLLGLTAEAEPRSADDRQRIAAVTAPATGFTVAEPFEQLPGGAATVSGDLGRDAFSRPSANMSFERELDFHLGQALFDKLWVASPSSTKASDGLGPLYNARSCQACHIRDGRGQVSGGPGLVLRIGRVRGDGVLPDPLFGLQIQDSAVPGLRPEARIAVSQAETEVTLNGGEVAVLRKPRYRLDAAEGTLHAESTLSPRLAPQMIGLGLLEAIPEAEILARADPDDRDGDGISGRPNRVHDPETGQEALGRFGWKAGAASVLDQTAAAFASDIGISSPLRPAPWGDCTELQVECRAALHGDGDPRGAEIDGPALALTAFYSRNLAVPARRDVDDPDVLRGKRVFYGIGCPACHVPKHVTAQLSDQPEQSFQLIWPYTDLLLHDMGAGLADELPQGLASGREWRTAPLWGIGLTEQVSGQARFLHDGRARTLLEAVLWHGGEAAAQRDRVIALAPEDRAALIRFLESL | not soluble
